T1: Cas12i3 S801R (Unidentified, S801R)
T1 chain: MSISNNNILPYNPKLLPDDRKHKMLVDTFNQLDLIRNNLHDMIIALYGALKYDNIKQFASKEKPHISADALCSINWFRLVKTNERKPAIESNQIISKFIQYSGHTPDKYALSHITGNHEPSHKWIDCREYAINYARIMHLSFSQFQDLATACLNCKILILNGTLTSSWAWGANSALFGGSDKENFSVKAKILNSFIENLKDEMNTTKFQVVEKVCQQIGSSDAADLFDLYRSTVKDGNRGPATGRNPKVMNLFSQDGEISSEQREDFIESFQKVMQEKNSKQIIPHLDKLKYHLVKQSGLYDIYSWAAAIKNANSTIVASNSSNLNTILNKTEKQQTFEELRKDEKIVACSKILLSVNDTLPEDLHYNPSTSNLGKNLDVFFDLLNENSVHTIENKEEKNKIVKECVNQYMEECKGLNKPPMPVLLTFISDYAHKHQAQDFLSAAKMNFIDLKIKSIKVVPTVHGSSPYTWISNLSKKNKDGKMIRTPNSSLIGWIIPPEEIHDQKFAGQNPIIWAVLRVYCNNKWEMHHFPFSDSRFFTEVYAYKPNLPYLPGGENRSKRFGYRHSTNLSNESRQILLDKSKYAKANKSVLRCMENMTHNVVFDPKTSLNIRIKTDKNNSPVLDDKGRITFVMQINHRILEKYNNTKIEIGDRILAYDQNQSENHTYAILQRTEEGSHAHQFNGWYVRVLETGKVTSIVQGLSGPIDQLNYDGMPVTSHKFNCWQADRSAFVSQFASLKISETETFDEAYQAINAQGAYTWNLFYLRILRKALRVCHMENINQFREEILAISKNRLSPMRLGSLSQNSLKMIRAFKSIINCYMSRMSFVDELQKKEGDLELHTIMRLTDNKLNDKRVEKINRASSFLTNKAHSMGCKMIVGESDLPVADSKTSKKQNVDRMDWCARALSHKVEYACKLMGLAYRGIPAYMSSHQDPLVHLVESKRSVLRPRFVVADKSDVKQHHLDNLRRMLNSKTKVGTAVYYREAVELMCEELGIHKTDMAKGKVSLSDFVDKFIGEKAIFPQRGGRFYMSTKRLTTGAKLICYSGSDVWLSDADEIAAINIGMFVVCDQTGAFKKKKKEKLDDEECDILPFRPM

T2: Cas12i3 K583R N711R C724R (Unidentified, K583R,N711R,C724R)
T2 chain: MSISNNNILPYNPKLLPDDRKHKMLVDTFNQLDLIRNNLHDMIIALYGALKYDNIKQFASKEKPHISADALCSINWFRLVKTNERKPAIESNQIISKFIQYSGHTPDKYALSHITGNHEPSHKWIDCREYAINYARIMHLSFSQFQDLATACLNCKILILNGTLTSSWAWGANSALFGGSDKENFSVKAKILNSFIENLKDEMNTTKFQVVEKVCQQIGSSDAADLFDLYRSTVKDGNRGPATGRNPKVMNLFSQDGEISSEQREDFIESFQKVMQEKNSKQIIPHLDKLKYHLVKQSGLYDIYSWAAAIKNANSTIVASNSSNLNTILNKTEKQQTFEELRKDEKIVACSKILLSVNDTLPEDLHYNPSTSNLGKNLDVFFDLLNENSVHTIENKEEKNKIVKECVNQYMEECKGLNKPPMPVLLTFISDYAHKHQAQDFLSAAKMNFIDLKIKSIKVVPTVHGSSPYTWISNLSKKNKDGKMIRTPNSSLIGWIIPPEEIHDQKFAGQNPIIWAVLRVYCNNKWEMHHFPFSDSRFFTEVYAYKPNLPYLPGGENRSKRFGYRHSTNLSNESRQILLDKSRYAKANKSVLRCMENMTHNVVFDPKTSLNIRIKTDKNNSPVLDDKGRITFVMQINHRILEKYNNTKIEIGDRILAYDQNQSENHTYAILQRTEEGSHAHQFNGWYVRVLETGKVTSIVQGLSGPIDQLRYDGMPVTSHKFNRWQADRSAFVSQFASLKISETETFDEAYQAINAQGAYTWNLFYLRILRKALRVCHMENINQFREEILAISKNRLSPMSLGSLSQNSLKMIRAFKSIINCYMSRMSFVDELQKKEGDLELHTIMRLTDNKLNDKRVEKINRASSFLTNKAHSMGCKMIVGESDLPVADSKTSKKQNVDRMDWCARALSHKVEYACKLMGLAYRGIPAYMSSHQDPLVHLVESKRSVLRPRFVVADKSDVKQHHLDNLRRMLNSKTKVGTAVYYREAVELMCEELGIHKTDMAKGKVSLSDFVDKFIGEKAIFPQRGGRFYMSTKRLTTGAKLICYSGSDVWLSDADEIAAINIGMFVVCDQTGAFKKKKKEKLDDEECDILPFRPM


Experiments:
Cas12i3 S801R = molecular target: T1, Cas12i3 S801R; assay: cell_activity; fold change in % indels, HEK293T; PAM not stated in example
Protocol: (§1) Approximately 16 hours prior to transfection, 100 μl of 25,000 HEK293T cells in DMEM/10% FBS+Pen/Strep were plated into each well of a 96-well plate. On the day of transfection, the cells were 70-90% confluent. For each well to be transfected, a mixture of 0.5 μl of Lipofectamine 2000 and 9.5 μl of Opti-MEM was prepared and then incubated at room temperature for 5-20 minutes (Solution 1). […] In the case of negative controls, the crRNA was not included in Solution 2. The solution 1 and solution 2 mixtures were mixed by pipetting up and down and then incubated at room temperature for 25 minutes. Following incubation, 20 μL of the Solution 1 and Solution 2 mixture were added dropwise to each well of a 96 well plate containing the cells. 72 hours post transfection, cells are trypsinized by adding 10 μL of TrypLE to the center of each well and incubated for approximately 5 minutes. 100 μL of D10 media was then added to each well and mixed to resuspend cells. The cells were then spun down at 500 g for 10 minutes, and the supernatant was discarded. QuickExtract buffer was added to ⅕ the amount of the original cell suspension volume. Cells were incubated at 65° C. for 15 minutes, 68° C. for 15 minutes, and 98° C. for 10 minutes.
(§2) Samples for Next Generation Sequencing were prepared by two rounds of PCR. The first round (PCR1) was used to amplify specific genomic regions depending on the target. PCR1 products were purified by column purification. Round 2 PCR (PCR2) was done to add Illumina adapters and indexes. Reactions were then pooled and purified by column purification. Sequencing runs were done with a 150 cycle NextSeq v2.5 mid or high output kit.

[1] = molecular target: T2, Cas12i3 K583R N711R C724R; assay: as above
Protocol: as §1, §2

Row | Binder | binding signal (Cas12i3 S801R) | binding signal [1]
1 | EMX1_T5 crRNA ; EMX1_T5 target (ssRNA ; dsDNA) RNA: AUAGUGUGUCCUUAGUUGACAUUAUUAUUCCCAUAGGGAAGG DNA 1: TATTATTCCCATAGGGAAGG DNA 2: CCTTCCCTATGGGAATAATA | 1.44 fold of wild-type | 1.99 fold of wild-type
2 | AAVS1_T3 crRNA ; AAVS1_T3 target (ssRNA ; dsDNA) RNA: AUAGUGUGUCCUUAGUUGACAUGUGAGAAUGGUGCGUCCUAG DNA 1: GTGAGAATGGTGCGTCCTAG DNA 2: CTAGGACGCACCATTCTCAC | 2.2 fold of wild-type | 2.96 fold of wild-type
3 | VEGFA_T2 crRNA ; VEGFA_T2 target (ssRNA ; dsDNA) RNA: AUAGUGUGUCCUUAGUUGACAUAAUCCUCCACCAGUCAUGGU DNA 1: AATCCTCCACCAGTCATGGT DNA 2: ACCATGACTGGTGGAGGATT | 1.74 fold of wild-type | 2.57 fold of wild-type

— patent US20240352434, “COMPOSITIONS COMPRISING A VARIANT CAS12I3 POLYPEPTIDE AND USES THEREOF” (Arbor Biotechnologies, Inc., published 2024)
